Experimental data: the RNAGym collection of RNA variant scans (doi:10.1073/pnas.2313332121)

B1: TPR t1 (parent)
chain: GACCAAUCUGCCCUCAGAGCUCGAGAACAUCUUCGGAUGCAGAGGAGGCAGGCUUCGGUGGCGCGAUAGCGCCAACGUCCUCAACCUCCAAUGCAUCCCACCACAUGAUGAUGCCUGAAGAGCCUUGGUUUUUUG

Variants of: B1
Assay: polymerase ribozyme fitness, log enrichment relative to wild type (log ratio); higher = more active; in vitro selection for triplet polymerase activity
Procedure, shortened: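 Frozen incubation at −7 °C formed the core of a single, triplicate in vitro selection round applied to PCR-built, transcribed mutant libraries of each subunit of a heterodimeric triplet polymerase ribozyme. Extended constructs were gel-excised, captured with streptavidin beads and amplified by RT-PCR, and input and output libraries were Illumina-sequenced with a filter of ≥10 input reads and ≥1 read per output. Fitness is the logarithm of genotype enrichment relative to wild-type enrichment, with inverse-variance-weighted replicate averaging, and the logarithm is base 2.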

C49G C101A and C13U C28G A43G C62U G110C are within 0.2 log units of each other in “polymerase ribozyme fitness (log ratio)” value: -1.3 for the first, -1.17 for the second.

Going from C11U C15A C56U to C13U A18U C31U C64G A103C G110A, the “polymerase ribozyme fitness (log ratio)” value falls from -1.47 to -5.64.

First: G61A C101U
Second: C28G C34G G110A G117U
The “polymerase ribozyme fitness (log ratio)” value of the first is higher: -1.21 for the first, -5.7 for the second.

First: C13G A41U C56U A121G
Second: G39U A105C
The “polymerase ribozyme fitness (log ratio)” value of the first is higher: 0.91 for the first, -3.64 for the second.

First: C12U G117U
Second: C13G U54C G63A A100U U109A U131G
The “polymerase ribozyme fitness (log ratio)” value of the first is higher: 0.316 for the first, -6.38 for the second.

Compared with G71C C82A U112A A118U, C72G A90U is lower in “polymerase ribozyme fitness (log ratio)” value: -0.627 for the first, -1.11 for the second.

Going from C76U U125A to G45A C89U, the “polymerase ribozyme fitness (log ratio)” value falls from -0.353 to -1.44.

Compared with C15A A43G C53U, A26C C82A is lower in “polymerase ribozyme fitness (log ratio)” value: -3.68 for the first, -5.2 for the second.

Compared with G63C A90C, C40A G71U G117C G120C is lower in “polymerase ribozyme fitness (log ratio)” value: -2.06 for the first, -5.63 for the second.

First: A29U C98U
Second: A6U C12A G48U U106G
The “polymerase ribozyme fitness (log ratio)” value of the first is lower: -3.59 for the first, -1.45 for the second.

Going from G10A G45A A95C C102A to A27U A50U, the “polymerase ribozyme fitness (log ratio)” value falls from -2.76 to -4.65.

Going from C56U C89A U92C G117U to A41U G42A G52A, the “polymerase ribozyme fitness (log ratio)” value rises from -5.23 to -3.18.

First: C76U C86U A91U
Second: G61C C76U
The “polymerase ribozyme fitness (log ratio)” value of the first is lower: -3.49 for the first, -3.1 for the second.

Compared with G10A G57U A90G U126A, C28A U54C U106C is lower in “polymerase ribozyme fitness (log ratio)” value: -1.18 for the first, -5.05 for the second.

First: G39A G63A
Second: C8G G57A C73U U78A A91U
The “polymerase ribozyme fitness (log ratio)” value of the first is higher: -1 for the first, -1.7 for the second.

Going from U7A C56G U92C to G51U C53U C85A G93C, the “polymerase ribozyme fitness (log ratio)” value falls from -1.74 to -5.05.

Compared with G36A U92A, C53U G60U C101U A103C is lower in “polymerase ribozyme fitness (log ratio)” value: -3.67 for the first, -5.14 for the second.

Going from C62G A105G to C12A U33G G48A A119G, the “polymerase ribozyme fitness (log ratio)” value falls from -4.99 to -5.25.

Going from A2G U9C C13U A18U C56G C72G A95G to A24C A43U C49A C79A C98U C114U, the “polymerase ribozyme fitness (log ratio)” value falls from -4.64 to -7.85.

First: C40G G110A
Second: A24G G47C A90U
The “polymerase ribozyme fitness (log ratio)” value of the first is higher: -1.53 for the first, -4.32 for the second.

Going from G61A C86G G93C to A2C G63U A84G U131G, the “polymerase ribozyme fitness (log ratio)” value falls from -2.03 to -4.08.

Compared with G61U C86A A103C, G42C G60A G120U is higher in “polymerase ribozyme fitness (log ratio)” value: -5.4 for the first, -2.21 for the second.

Going from C20A G45U C53G G63C C88U A111U U125G to G42C G45U G48U U131G, the “polymerase ribozyme fitness (log ratio)” value rises from -5.87 to -3.09.

First: C34A C62A
Second: A37U C64U C88U C102A
The “polymerase ribozyme fitness (log ratio)” value of the first is lower: -4.45 for the first, -2.71 for the second.

Compared with U81G G122U C123G U129A, G71C C94A is higher in “polymerase ribozyme fitness (log ratio)” value: -4.51 for the first, -4.08 for the second.

U14A C72U C89A and G113C G122A are within 0.2 log units of each other in “polymerase ribozyme fitness (log ratio)” value: -3.16 for the first, -3.11 for the second.

Going from G113C G122U to G17C G63U, the “polymerase ribozyme fitness (log ratio)” value falls from -1.42 to -4.39.

Going from A16C C98U G110A C124A to C72A C114A G122A, the “polymerase ribozyme fitness (log ratio)” value rises from -4.72 to -2.11.

First: C82U G127U
Second: G44A G93U C124G
The “polymerase ribozyme fitness (log ratio)” value of the first is lower: -0.724 for the first, 0.0379 for the second.

Going from C34A C53A to A83U C88A G128C, the “polymerase ribozyme fitness (log ratio)” value falls from -2.86 to -3.29.

Going from U7A C20G U78C to C97U C123G U126A, the “polymerase ribozyme fitness (log ratio)” value rises from -4.76 to 0.329.

First: U133A
Second: C82U G120U
The “polymerase ribozyme fitness (log ratio)” value of the first is lower: -0.252 for the first, 0.312 for the second.

Compared with A6U A26U G39A C49G G61A C88U C124G, C12U A27G A66C C73A U78C C101A is lower in “polymerase ribozyme fitness (log ratio)” value: -3.73 for the first, -4.25 for the second.

Going from A6U A26G C79U to C11G U130A, the “polymerase ribozyme fitness (log ratio)” value rises from -2.88 to 0.0419.

Going from U87A G110C to C40U A46C C64U, the “polymerase ribozyme fitness (log ratio)” value rises from -3.47 to -2.21.

First: G17A U116C G120U
Second: G61U C82A
The “polymerase ribozyme fitness (log ratio)” value of the first is lower: -5.7 for the first, -0.605 for the second.

First: U33G C34G C72G G110A
Second: C3U C13U G57U C79U A100C
The “polymerase ribozyme fitness (log ratio)” value of the first is lower: -6.68 for the first, -0.594 for the second.

Compared with U9G C56U G61U, C94U G135U is higher in “polymerase ribozyme fitness (log ratio)” value: -4.53 for the first, -1.34 for the second.

Going from C99U U133A to C11G C40U G47C C56A U92A, the “polymerase ribozyme fitness (log ratio)” value falls from -2.99 to -6.34.

C8U G19C A43U C94A C115A G120U U133A and A43U G63A are within 0.2 log units of each other in “polymerase ribozyme fitness (log ratio)” value: -2.68 for the first, -2.51 for the second.

Compared with G93U U96G, G45U C73U C98U A111G U125A is lower in “polymerase ribozyme fitness (log ratio)” value: -1.89 for the first, -6.59 for the second.

Compared with U21G G60A G63C U78A C115U A119U U130A, C70U A118U C123A U130C is higher in “polymerase ribozyme fitness (log ratio)” value: -4.71 for the first, -0.647 for the second.
